{
  "source": "paper PMC8060872",
  "test_in_all_cases": "AUC",
  "key": {"[1]": {"target": "C-terminally truncated SARS-CoV main protease Δ(201–306) (SARS-CoV)"}, "[2]": {"target": "C-terminally truncated SARS-CoV main protease Δ(293–306) (SARS-CoV)"}, "[3]": {"target": "N-terminally truncated SARS-CoV main protease Δ(1–4) (SARS-CoV)"}, "[4]": {"target": "N-terminally truncated SARS-CoV main protease Δ(1–5) (SARS-CoV)"}, "[5]": {"target": "N-terminally truncated SARS-CoV main protease Δ(1–6) (SARS-CoV)"}, "[6]": {"target": "N-terminally truncated SARS-CoV main protease Δ(1–7) (SARS-CoV)"}},
  "data": [
    {"substance": "C-terminally truncated SARS-CoV main protease Δ(201–306) (domain or fragment)", "values": [
      {"measurement": "Kd", "setting": "[1]", "value": 7870, "unit": "µM"}
    ]},
    {"substance": "C-terminally truncated SARS-CoV main protease Δ(293–306) (domain or fragment)", "values": [
      {"measurement": "Kd", "setting": "[2]", "value": 163, "unit": "µM"}
    ]},
    {"substance": "N-terminally truncated SARS-CoV main protease Δ(1–4) (domain or fragment)", "values": [
      {"measurement": "Kd", "setting": "[3]", "value": 57.5, "unit": "µM"}
    ]},
    {"substance": "N-terminally truncated SARS-CoV main protease Δ(1–5) (domain or fragment)", "values": [
      {"measurement": "Kd", "setting": "[4]", "value": 35.4, "unit": "µM"}
    ]},
    {"substance": "N-terminally truncated SARS-CoV main protease Δ(1–6) (domain or fragment)", "values": [
      {"measurement": "Kd", "setting": "[5]", "value": 151, "unit": "µM"}
    ]},
    {"substance": "N-terminally truncated SARS-CoV main protease Δ(1–7) (domain or fragment)", "values": [
      {"measurement": "Kd", "setting": "[6]", "value": 357, "unit": "µM"}
    ]}
  ]
}
